PMC11587651, “Increased cytoplasmic expression of PETase enzymes in E. coli” (Microbial Cell Factories, 2024)
Residue numbers refer to the chain shown, from its start. Names may count otherwise.

Substrate: CC(=O)Oc1ccc([N+](=O)[O-])cc1
Experiment: purified protein
Assay type: biochemical, Pseudideonella sakaiensis
Conditions: 100 mM potassium phosphate pH 7, 25 °C, 1-20 mM 4-NPA, acetonitrile from substrate stock

B1: IsPETase (Pseudideonella sakaiensis) (protein)
chain: AQTNPYARGPNPTAASLEASAGPFTVRSFTVSRPSGYGAGTVYYPTNAGGTVGAIAIVPGYTARQSSIKWWGPRLASHGFVVITIDTNSTLDQPSSRSSQQMAALRQVASLNGTSSSPIYGKVDTARMGVMGWSMGGGGSLISAANNPSLKAAAPQAPWDSSTNFSSVTVPTLIFACENDSIAPVNSSALPIYDSMSRNAKQFLEINGGSHSCANSGNSNQALIGKKGVAWMKRFMDNDTRYSTFACENPNSTRVSDFRTANCS
notes: expressed in E. coli SHuffle T7 Express; IMAC purified; monomeric by SEC
Km: 8.16 ± 0.66 mM | kcat: 30.3 ± 1.1 s⁻¹

B2: IsPETase (Pseudideonella sakaiensis; D186H/N233K/R224Q/R280A/S121E) (protein)
chain: B1 chain with S95E, D160H, R198Q, N207K, R254A
notes: as for B1
Km (FAST-PETase): 11.33 ± 1.11 mM | kcat (FAST-PETase): 45.7 ± 2.3 s⁻¹

B3: IsPETase (Pseudideonella sakaiensis; D186H/K252M/K95N/M154G/N212K/N233C/N241C/P181V/Q119K/Q182M/R224L/R280A/R90T/S121E/S207R/S213E/S214Y/S282C/S58A/S61V/T270Q) (protein)
chain: AQTNPYARGPNPTAASLEASAGPFTVRSFTVARPVGYGAGTVYYPTNAGGTVGAIAIVPGYTATQSSINWWGPRLASHGFVVITIDTNSTLDKPESRSSQQMAALRQVASLNGTSSSPIYGKVDTARGGVMGWSMGGGGSLISAANNPSLKAAAVMAPWHSSTNFSSVTVPTLIFACENDRIAPVKEYALPIYDSMSLNAKQFLEICGGSHSCACSGNSNQALIGMKGVAWMKRFMDNDTRYSQFACENPNSTAVCDFRTANCS
notes: as for B1
Km (Hot-PETase): 9.61 ± 0.91 mM | kcat (Hot-PETase): 33.0 ± 1.5 s⁻¹
